Patent US20140193915, “COMPOSITIONS AND METHODS FOR CUSTOM SITE-SPECIFIC DNA RECOMBINASES” (Monsanto Technology, LLC, published 2014)
Substitutions are numbered along the chain they refer to.

T1: sN-TALER IV-1 (GinH106Y-TALE13) (synthetic)
T1 chain: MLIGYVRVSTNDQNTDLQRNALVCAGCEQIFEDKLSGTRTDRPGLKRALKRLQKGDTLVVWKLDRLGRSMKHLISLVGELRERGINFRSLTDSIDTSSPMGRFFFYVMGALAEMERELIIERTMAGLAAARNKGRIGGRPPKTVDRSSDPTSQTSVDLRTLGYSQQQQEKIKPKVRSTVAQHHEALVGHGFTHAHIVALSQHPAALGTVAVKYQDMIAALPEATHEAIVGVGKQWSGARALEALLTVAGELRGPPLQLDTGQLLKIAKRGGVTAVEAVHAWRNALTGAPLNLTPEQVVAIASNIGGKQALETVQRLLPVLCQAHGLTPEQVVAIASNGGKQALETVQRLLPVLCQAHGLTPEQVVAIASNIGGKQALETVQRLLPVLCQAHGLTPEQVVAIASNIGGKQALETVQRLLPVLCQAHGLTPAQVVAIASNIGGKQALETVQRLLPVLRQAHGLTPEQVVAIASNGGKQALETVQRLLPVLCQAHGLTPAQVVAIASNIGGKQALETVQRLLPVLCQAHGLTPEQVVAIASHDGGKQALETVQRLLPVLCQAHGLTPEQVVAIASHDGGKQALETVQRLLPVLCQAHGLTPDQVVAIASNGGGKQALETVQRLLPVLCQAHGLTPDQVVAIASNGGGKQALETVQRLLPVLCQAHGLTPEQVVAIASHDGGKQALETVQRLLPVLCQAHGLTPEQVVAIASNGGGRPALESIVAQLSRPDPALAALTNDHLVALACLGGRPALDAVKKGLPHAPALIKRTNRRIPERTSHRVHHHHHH

T2: sN-TALER IV-2 (GinH106Y-TALE13) (synthetic)
T2 chain: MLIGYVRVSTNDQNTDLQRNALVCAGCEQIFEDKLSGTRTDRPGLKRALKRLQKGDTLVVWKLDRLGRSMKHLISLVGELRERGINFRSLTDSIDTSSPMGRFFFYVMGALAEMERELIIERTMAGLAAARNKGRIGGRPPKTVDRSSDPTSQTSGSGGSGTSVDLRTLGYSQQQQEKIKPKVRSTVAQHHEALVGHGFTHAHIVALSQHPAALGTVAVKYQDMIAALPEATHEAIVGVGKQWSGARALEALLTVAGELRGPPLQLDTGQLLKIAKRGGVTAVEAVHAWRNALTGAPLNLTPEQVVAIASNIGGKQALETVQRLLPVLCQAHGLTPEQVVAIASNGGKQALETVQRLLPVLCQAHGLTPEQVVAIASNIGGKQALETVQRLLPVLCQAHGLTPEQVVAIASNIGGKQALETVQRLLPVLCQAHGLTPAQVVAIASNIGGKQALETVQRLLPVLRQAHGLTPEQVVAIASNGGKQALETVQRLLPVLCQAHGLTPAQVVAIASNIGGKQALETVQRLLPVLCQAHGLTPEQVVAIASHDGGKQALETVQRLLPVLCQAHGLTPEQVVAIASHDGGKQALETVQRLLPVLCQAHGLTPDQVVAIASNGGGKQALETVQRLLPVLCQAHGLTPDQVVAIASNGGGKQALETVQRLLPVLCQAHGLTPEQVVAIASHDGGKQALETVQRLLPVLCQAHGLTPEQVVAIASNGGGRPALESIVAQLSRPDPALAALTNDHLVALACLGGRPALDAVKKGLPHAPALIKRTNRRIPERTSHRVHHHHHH

T3: pN-TALER IV-1-EE2 (GinL7C7-EE2-TALE13) (synthetic)
T3 chain: T1 chain with V6A, D12G, N14S, N20D, K50E, M70V, I94V, Y106H, M108T, M114V

B1: Gin20TALE+10 (dsDNA)
DNA 1: AGAAGGTATTTATATAGGCACTTATCCAAAACCATGGTTTACAGGACCACGGTATATAAATACCTTCT
DNA 2: AGAAGGTATTTATATACCGTGGTCCTGTAAACCATGGTTTTGGATAAGTGCCTATATAAATACCTTCT
B2: Gin20TALE+3 (dsDNA)
DNA 1: AGAAGGTATTTATATAATCCAAAACCATGGTTTACAGGTATATAAATACCTTCT
DNA 2: AGAAGGTATTTATATACCTGTAAACCATGGTTTTGGATTATATAAATACCTTCT
B3: Gin20TALE+4 (dsDNA)
DNA 1: AGAAGGTATTTATATATATCCAAAACCATGGTTTACAGGCTATATAAATACCTTCT
DNA 2: AGAAGGTATTTATATAGCCTGTAAACCATGGTTTTGGATATATATAAATACCTTCT
B4: Gin20TALE+1 (dsDNA)
DNA 1: AGAAGGTATTTATATTCCAAAACCATGGTTTACAGATATAAATACCTTCT
DNA 2: AGAAGGTATTTATATCTGTAAACCATGGTTTTGGAATATAAATACCTTCT
B5: Gin20TALE+9 (dsDNA)
DNA 1: AGAAGGTATTTATATAGGCATTATCCAAAACCATGGTTTACAGGACACGGTATATAAATACCTTCT
DNA 2: AGAAGGTATTTATATACCGTGTCCTGTAAACCATGGTTTTGGATAATGCCTATATAAATACCTTCT
B6: Gin20TALE+2 (dsDNA)
DNA 1: AGAAGGTATTTATATATCCAAAACCATGGTTTACAGTATATAAATACCTTCT
DNA 2: AGAAGGTATTTATATACTGTAAACCATGGTTTTGGATATATAAATACCTTCT
B7: Gin20TALE+6 (dsDNA)
DNA 1: AGAAGGTATTTATATAGTTATCCAAAACCATGGTTTACAGGACGTATATAAATACCTTCT
DNA 2: AGAAGGTATTTATATACGTCCTGTAAACCATGGTTTTGGATAACTATATAAATACCTTCT
B8: Gin20TALE+7 (dsDNA)
DNA 1: AGAAGGTATTTATATAGGTTATCCAAAACCATGGTTTACAGGACGGTATATAAATACCTTCT
DNA 2: AGAAGGTATTTATATACCGTCCTGTAAACCATGGTTTTGGATAACCTATATAAATACCTTCT
B9: R47 (8bp) (dsDNA)
DNA 1: AGAAGGTATTTATATCTCTGACCATGGTCACACTTATAAATACCTTCT
DNA 2: B9 DNA 1 with T15A, C16G, C18G, C31G, C33G, T34A

Target: T1, sN-TALER IV-1 (GinH106Y-TALE13)
Experiment: cell_activity; E. coli; sequenced
Conditions: tags: 6-His; chain copies: 2 per site, tetramer in synapsis (stated)
Experimental: (§1) To test for recombination, E. coli DH5alpha cells were co-transformed with different combinations of TALER expression construct and TALER reporter construct pairs (Tables 6 and 7). The N-TALER expression and reporter constructs were in an approximate 1:1 mass ratio during the transformation. The co-transformed bacteria were plated on media with chloramphenicol, kanamycin, and X-gal then incubated at 37° C. for 18 to 36 hours. Control samples consisted of transformations using the reporter construct alone. Control transformants were similarly plated. The bacterial transformation protocol was either heat shock or electroporation per standard molecular biology techniques.
PCR was used to confirm that the predicted recombination had occurred in colonies which were white or sectored. PCR primers were designed so that a PCR product of approximately 877 bp (depending on the length of the spacers) would be produced from the non-recombined reporter constructs, and a PCR product of approximately 470 bp would be produced from reporter constructs that had undergone N-TALER-mediated recombination. Standard colony PCR was performed on white, blue, and sectored colonies from several plates representing different pairs of N-TALER expression construct and reporter construct co-transformation combinations.
To confirm that the recombination occurred as predicted, several of the PCR products were sequenced. Sequencing results for PCR products generated from white colonies from the sN-TALER IV-1 and Gin18TALE+1; sN-TALER IV-1 and Gin20TALE+0; or sN-TALER IV-1 and Gin20TALE+10 reporter constructs are shown in FIG. 7. No mismatches were detected relative to the predicted recombinase core sequence in any of the PCR products sequenced thereby confirming a base-perfect recombination with N-TALERs (the few single-nucleotide mismatches detected in the sN-TALER IV-1 and Gin20TALE+0 combination were rechecked and consequently dismissed as sequencing error).

| Binder | activity [score] |
| --- | --- |
| B1 | 1.5 |

Target: T2, sN-TALER IV-2 (GinH106Y-TALE13)
Experiment: cell_activity; E. coli
Conditions: tags: 6-His
Experimental: as §1

| Binder | activity [score] |
| --- | --- |
| B2 | 3 |
| B3 | 4 |
| B4 | 1 |
| B1 | 1 |

Target: T1, sN-TALER IV-1 (GinH106Y-TALE13)
Experiment: cell_activity; E. coli
Conditions: tags: 6-His; chain copies: 2 per site, tetramer in synapsis (stated)
Experimental: as §1

| Binder | activity [score] |
| --- | --- |
| B2 | 3 |
| B4 | 2 |
| B5 | 2 |
| B6 | 3 |

Target: T3, pN-TALER IV-1-EE2 (GinL7C7-EE2-TALE13)
Experiment: cell_activity; E. coli
Conditions: tags: 6-His
Experimental: as §1
Two additional N-TALERs, based on N-TALER IV-1, were constructed wherein the GinH106Y recombinase catalytic domain was replaced with either the GinL7C7-EE2 catalytic domain or the GinL7C7-EE3 permissive recombinase catalytic domain. These N-TALERs were labeled pN-TALER IV-1-EE2 (SEQ ID NO:41) and pN-TALER IV-1-EE3 (SEQ ID NO:45), respectively. pN-TALER IV-1-EE2 was tested in combination with seventeen N-TALER reporter constructs and pN-TALER IV-1-EE3 was tested with three reporter constructs (Table 10).

| Binder | activity [score] |
| --- | --- |
| B2 | 1 |
| B3 | 1.5 |
| B4 | 1 |
| B5 | 2 |
| B7 | 2 |
| B8 | 2.5 |
| B6 | 1 |
| B1 | 1 |

Target: T3, pN-TALER IV-1-EE2 (GinL7C7-EE2-TALE13)
Experiment: cell_activity; E. coli
Conditions: tags: 6-His
Remark: another data set of the same source
From the text: To determine how much of the Gin20 sequence is required for recombination when the central sequence is maintained at a permitted length, N-TALER reporters were generated with a 20 bp recombinase central sequence between the TALE binding sites, where either the central 12 bp, or the central 10 bp, or the central 8 bp of the recombinase core sequence were held constant, and the remaining nucleotides were different from the Gin sequence. The N-TALER reporter with 12 bp was designated R45, the N-TALER reporter with 10 bp was designated R46, and the N-TALER reporter with 8 bp was designated R47. A N-TALER reporter with a 10 bp site 1 and a 12 bp site 2 was designated R46B, and a N-TALER reporter with a T and an A flanking the central AT di-nucleotide was designated R48 (see Table 33). The various reporters, including the pSC101 Gin20TALE13+0 were co-transformed with either sN-TALER-IV-1 or pN-TALER-IV-1 and recombination, as determined by colony color, was scored (Table 33). For purposes of comparison, the GinE site that was used in the generation of the GinL7C7-EE2 recombinase domain (Gersbach et al., 2010) was also included.
To confirm that white colonies resulted from recombination, the colonies were analyzed by colony PCR and sequencing of the PCR product. For the reporter that retained 12 bp from the Gin site, 8 of 8 colonies analyzed had the predicted recombination product for both the sN-TALER-IV-1 chimera and the pN-TALER-IV-1chimera (16 colonies total analyzed, 8 each). Likewise, for the reporter that retained 8 bp from the Gin site co-transformed with the pN-TALER-IV-1 chimera, 14 of 14 colonies analyzed had the predicted recombination product.

| Binder | activity [score] |
| --- | --- |
| B9 | 1.5 |
